In this assay the target is GAL4 DBD-tagged VIVIT PPTP chimeric peptide. As to the kind of experiment: two-hybrid; mammalian two-hybrid in HEK293T cells: GAL4 DBD-tagged peptides, VP16 activation domain-tagged CNAβ2 and pG5-luc cotransfected for 24 h, luciferase read-out; Fig. 4b with or without 1 μM ionomycin.

Turning to VP16 activation domain-tagged CNAβ2, the fold change of the two-hybrid signal against L-1-2 WT was 1.93 fold and the fold change of the two-hybrid signal against VIVIT 10-mer was 4.76 fold.
